Earlier results as cited in patent publication US20070276019A1, “Haloalkyl Containing Compounds as Cysteine Protease Inhibitors” (Axys Pharmaceuticals, Inc., priority 2003, published 2007).

Conditions: clinical trials

Substance: OKT3: murine monoclonal antibody directed towards CD-3 domain of activated T-cells
- patients administered OKT3 that produce antibodies versus the therapy: 20-40%
